The source of these data is paper PMC3392491.

This data set has as its target T1, Dda K38A (bacteriophage T4, UniProt P32270 1-439, K38A).
T1 sequence: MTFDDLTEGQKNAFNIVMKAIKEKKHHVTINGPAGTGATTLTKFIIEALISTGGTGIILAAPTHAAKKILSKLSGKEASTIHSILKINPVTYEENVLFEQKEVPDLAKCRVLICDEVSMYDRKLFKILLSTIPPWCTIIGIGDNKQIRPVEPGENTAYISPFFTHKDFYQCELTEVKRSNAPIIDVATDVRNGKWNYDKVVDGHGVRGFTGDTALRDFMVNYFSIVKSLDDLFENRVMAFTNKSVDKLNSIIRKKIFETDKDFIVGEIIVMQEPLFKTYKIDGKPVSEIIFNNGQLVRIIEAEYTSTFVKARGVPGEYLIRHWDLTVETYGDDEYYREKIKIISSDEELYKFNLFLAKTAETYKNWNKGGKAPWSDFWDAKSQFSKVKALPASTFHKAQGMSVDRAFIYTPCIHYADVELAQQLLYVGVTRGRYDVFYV
The data set is described as follows: X-ray crystallography.

In the case of TTTTTTTT (ssDNA) [dT8], the binding result is recorded as “binds”.
